Measured values as given in patent publication US20120276104A1 (F STAR BIOTECHNOLOGISCHE FORSCHUNGS UND ENTWICKLUNGSGES M B …, published 2012).

Columns and labels:
[1] = molecular target: T1, HER-2 expressed on human tumor cells (human, UniProt P04626 23-1255); assay: flow cytometry on SKBR3 cells, detection with anti-human IgG-phycoerythrin, MFI against Fcab concentration; flow cytometry, HER-2 on SKBR3 cells
T1 construct: whole, on cells; also called Her-2/neu; HER-2 on SKBR3, BT474 and HCC1954 cells
Description: (§1) CM-5 chips are coated with increasing concentrations of recombinant soluble HER-2 protein. […] Then, buffer is injected to measure the off-rate of the binding reaction. The binding affinity (KD) is calculated using the BiaEval software using a 1:1 stochiometry model. […] Unbound Fcab is removed by two washing steps in FACS buffer. Cell bound Fcab is detected by incubation of the cells with polyclonal anti-human IgG antibodies coupled to phycoerythrin (SIGMA) for 30 minutes on ice as recommended by the manufacturer. Again, unbound detection antibodies are removed by two washing steps as above. Fcab binding is enumerated by flow cytometry by plotting the mean fluorescence intensity against the Fcab concentrations (FIG. 1, left panel).

[2] = molecular target: T2, recombinant soluble HER-2 protein (human, UniProt P04626 23-652, limits assumed); assay: SPR (Biacore), soluble HER-2 coated on CM-5 chip, Fcab injected at 0.8-25 ug/ml, 1:1 model; SPR, recombinant soluble HER-2 on the chip
T2 construct: Described only as 'recombinant soluble HER-2 protein'; also called recombinant HER-2
Description: as §1

- EC50 [1]: 2 nM
- Kd [2]: 7.5 nM
B1: Fcab H561-4 (other)
chain: TCPPCPAPELLGGPSVFLFPPKPKDTLMISRTPEVTCVVVDVSHEDPEVKFNWYVDGVEVHNAKTKPREEQYNSTYRVVSVLTVLHQDWLNGKEYKCKVSNKALPAPIEKTISKAKGQPREPQVYTLPPSRDEFFTYWVSLTCLVKGFYPSDIAVEWESNGQPENNYKTTPPVLDSDGSFFLYSKLTVDRRRWTAGNVFSCSVMHEALHNHYTQKSLSLSPGK
notes: also called Her-2 specific Fcab clone H561-4
